Results taken from publication PMC7218866, “Impact of Self-Assembled Monolayer Design and Electrochemical Factors on Impedance-Based Biosensing”.

Target: lysozyme (UniProt P00698 19-147)
Assay: electrochemical impedance spectroscopy (EIS); dense aptamer SAM (no MCH dilution), ferricyanide reporter; RCT change significant from 8 nM (LOD), up to 12%; 1x HBS, pH 7.4, redox reporter (ferricyanide or methylene blue) in solution; aptamer on gold electrode; temperature not stated
Details: protein: commercial

Sequence of lysozyme (P00698 19-147): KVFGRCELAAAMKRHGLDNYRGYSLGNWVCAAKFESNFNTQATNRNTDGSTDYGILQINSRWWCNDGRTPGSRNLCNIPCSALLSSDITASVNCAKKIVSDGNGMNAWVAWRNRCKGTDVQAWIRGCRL

B1: lysozyme aptamer (thiolated) (ssDNA)
DNA: AGCAGCACAGAGGTCAGATGGCAGGTAAGCAGGCGGCTCACAAAACCATTCGCATGCGGC
modifications: 5' thiol-C6 (SH-C6), immobilized on gold in SAM
B1: binds.
